Assay results: patent publication US20260035459A1 (AVA LIFESCIENCE, published 2026)
Where a chain is given by its changes, count along the chain named.

B1: humanized anti-IGLV3-21^R110 antibody HC6-LC6 (antibody, human IgG1, V domains shown)
VH: QVQLQESGPGLVKPSETLSLTCTVSGFSLTSYGIHWIRQSPGRGLEWIGVIWRGGGTDSNAAFMSRVTISVDTSKSQVSLKLGSVTAADTAIYYCARSRYDEEESMNYWGQGTSVTVSS
VL: EIVLTQSPSSLSASVGDSVTITCRASGNIHSYLAWYQQKPGKAPKLLIYNAKTLADGVPSRFSGSGSGTQYTLTISSLQPEDFATYYCQHFWNTPPTFGAGTKLELK
notes: VH fused to a human IgG1 constant domain and VL to a human Ig kappa constant domain; Expressed in CHO cells
B2: humanized anti-IGLV3-21^R110 antibody HC6-LC8 (antibody, human IgG1, V domains shown)
VH: B1 VH
VL: EIVLTQSPATLSLSPGERATLSCRASGNIHSYLAWYQQKPGQAPRLLIYNAKTLADGIPARFSGSGSGTDYTLTISSLEPEDFASYYCQHFWNTPPTFGAGTKLELK
notes: Expressed in CHO cells
B3: humanized anti-IGLV3-21^R110 antibody HC7-LC9 (antibody, human IgG1, V domains shown)
VH: B1 VH with V67I, V71R, S76T
VL: B2 VL with A9G, A60D, S77R, S85V
notes: Expressed in CHO cells
B4: humanized anti-IGLV3-21^R110 antibody HC7-LC8 (antibody, human IgG1, V domains shown)
VH: B1 VH with V67I, V71R, S76T
VL: B2 VL
notes: Expressed in CHO cells
B5: humanized anti-IGLV3-21^R110 antibody HC7-LC7 (antibody, human IgG1, V domains shown)
VH: B1 VH with V67I, V71R, S76T
VL: B1 VL with E1Q, V3Q, S10F, K45Q, Q70E
notes: Expressed in CHO cells
B6: humanized anti-IGLV3-21^R110 antibody HC7-LC6 (antibody, human IgG1, V domains shown)
VH: B1 VH with V67I, V71R, S76T
VL: B1 VL
notes: Expressed in CHO cells
B7: humanized anti-IGLV3-21^R110 antibody HC6-LC9 (antibody, human IgG1, V domains shown)
VH: B1 VH
VL: B2 VL with A9G, A60D, S77R, S85V
notes: Expressed in CHO cells
B8: humanized anti-IGLV3-21^R110 antibody HC6-LC7 (antibody, human IgG1, V domains shown)
VH: B1 VH
VL: B1 VL with E1Q, V3Q, S10F, K45Q, Q70E
notes: Expressed in CHO cells

Molecular target: T1, soluble recombinant IGLV3-21^R110-harboring B-cell receptor, monomeric human IgM (170.5 kDa) (human)
T1 construct: Made in 293-HEK cells by transient expression and used as the analyte in BLI; also called soluble IGLV3-21^R110 B-cell receptor; soluble form of the IGLV3-21^R110 BCR
Assay: BLI (Fortebio Octet), antibody captured by anti-human IgG Fc, soluble BCR (monomeric IgM) as analyte, 1:1 model
Excerpt: In brief, to define the binding affinities of the antibodies to the IGLV3-21^R110-harboring B-cell receptor, a soluble recombinant version of the BCR (170.5 kDa; sequence according to SEQ ID NO: 52 for HC and 53 for LC) was produced in 293-HEK cell line as monomeric human IgM by transient expression using a protocol described in section 1.1 of this Example, and binding to immobilized anti-IGLV3-21^R110 antibodies was monitored by Bio-Layer Interferometry (BLI) on a Fortebio Octet instrument (Satorius). Kinetic assays were performed by first immobilizing the humanized anti IGLV3-21R110 antibodies onto biosensors through an indirect capturing reagent, anti-human lgG Fc antibody. Anti IGLV3-21^R110 antibodies were loaded at a concentration of 0.01875 μg/ml to generate an anti IGLV3-21^R110 antibody capture level of between 0.30 and 0.34 nm. A 9 nM BCR-fragment solution in running buffer (PBS, 0.02% Tween20, 0.1% BSA, 0.05% sodium acide) was prepared and serial diluted 1:3 to obtain 7 concentrations from 9 to 0.012 nM (9 nM, 3 nM, 1 nM, 0.333 nM, 0.111 nM, 0.037 nM, and 0.012 nM). The anti IGLV3-21 R110 antibody capture biosensors were then submerged in wells containing the different concentrations of the soluble BCR-fragment for 900 seconds (association stage) followed by a dissociation step of 1200 seconds in running buffer. Steps were performed at a constant shake speed of 1000 rpm. All reagents were used as described by the manufacturer. Sensorgrams were generated after double reference correction (buffer and blank sensors) to compensate for both the natural dissociation of the capture anti IGLV3-21^R110 antibody and also non-specific binding of the soluble BCR-fragment to the sensor surface. […] (KD) were calculated based on the ratio of association (ka) and dissociation rate (kd) constants, obtained by fitting sensorgrams with a first order 1:1 binding model using the Fortebio Data Analysis software (Satorius).

T1 sequence (heavy, as listed by the source limits assumed, chain 1 of 2): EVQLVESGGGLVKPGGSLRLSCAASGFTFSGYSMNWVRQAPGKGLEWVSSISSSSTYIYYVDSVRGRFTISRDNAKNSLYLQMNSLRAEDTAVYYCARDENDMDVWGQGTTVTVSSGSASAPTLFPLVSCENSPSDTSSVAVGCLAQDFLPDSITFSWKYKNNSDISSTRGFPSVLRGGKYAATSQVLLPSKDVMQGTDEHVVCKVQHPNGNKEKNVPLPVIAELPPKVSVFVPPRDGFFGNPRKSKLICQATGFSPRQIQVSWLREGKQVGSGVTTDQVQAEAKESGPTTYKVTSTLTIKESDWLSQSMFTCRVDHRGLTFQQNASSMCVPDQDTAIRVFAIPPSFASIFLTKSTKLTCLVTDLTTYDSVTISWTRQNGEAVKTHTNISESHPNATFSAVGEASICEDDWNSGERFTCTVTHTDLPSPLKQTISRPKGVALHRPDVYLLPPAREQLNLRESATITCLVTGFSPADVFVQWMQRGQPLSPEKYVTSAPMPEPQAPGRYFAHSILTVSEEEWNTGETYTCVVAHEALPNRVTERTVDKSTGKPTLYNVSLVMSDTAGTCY
T1 sequence (light, as listed by the source limits assumed, chain 2 of 2): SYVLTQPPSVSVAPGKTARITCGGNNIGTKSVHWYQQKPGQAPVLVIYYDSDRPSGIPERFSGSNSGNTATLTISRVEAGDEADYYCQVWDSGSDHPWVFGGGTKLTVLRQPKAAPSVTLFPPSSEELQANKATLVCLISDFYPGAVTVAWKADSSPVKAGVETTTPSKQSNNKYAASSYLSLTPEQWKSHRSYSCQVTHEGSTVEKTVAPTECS

Row | Kd | Binder
1 | 211 pM | B1
2 | 277 pM | B2
3 | 313 pM | B3
4 | 249 pM | B4
5 | 269 pM | B5
6 | 175 pM | B6
7 | 291 pM | B7
8 | 347 pM | B8
